From PMC9078787

Target: Fcγ receptor IIIa (UniProt P08637)
UniProt P08637, sequence (P08637 17-208): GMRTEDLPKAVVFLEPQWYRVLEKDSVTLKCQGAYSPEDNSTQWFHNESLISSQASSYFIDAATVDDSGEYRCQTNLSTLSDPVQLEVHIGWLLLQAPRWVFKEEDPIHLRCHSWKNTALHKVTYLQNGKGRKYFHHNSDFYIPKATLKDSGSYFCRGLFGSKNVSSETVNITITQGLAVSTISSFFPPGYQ

Substance: Pertuzumab (trademark: Perjeta®) (antibody)
- ADCC reporter-gene assay (Jurkat-CD16a-FcεRIγ-NFAT-luc effector cells, SK-BR-3 target cells), relative activity by EC50; batch H0323B07 (%afucose 4.2), the reference standard (%relative activity): 100
- ADCC reporter-gene assay, relative activity by EC50; batch H0324B01 (%afucose 4.1) (%relative activity): 96
- ADCC reporter-gene assay, relative activity by EC50; batch H0337B01 (%afucose 2.6) (%relative activity): 82
- ADCC reporter-gene assay, relative activity by EC50; batch H0340B01 (%afucose 2.4) (%relative activity): 73
- ADCC reporter-gene assay, relative activity by EC50; batch H0371B01 (%afucose 2.1) (%relative activity): 91
- ADCC reporter-gene assay, relative activity by EC50; batch H0382B04 (%afucose 3.7) (%relative activity): 84
- ADCC reporter-gene assay, relative activity by EC50; batch H0383B01 (%afucose 1.8) (%relative activity): 78
- ADCC reporter-gene assay, relative activity by EC50; batch H0388B01 (%afucose 2.3) (%relative activity): 81
- ADCC reporter-gene assay, relative activity by EC50; batch H0389B01 (%afucose 1.9) (%relative activity): 76
- ADCC reporter-gene assay, relative activity by EC50; batch H0391B01 (%afucose 2.1) (%relative activity): 71
- ADCC reporter-gene assay, relative activity by EC50; batch H0394B01 (%afucose 2.1) (%relative activity): 73
- ADCC reporter-gene assay, relative activity by EC50; batch H0395B02 (%afucose 2.1) (%relative activity): 76
- ADCC reporter-gene assay, relative activity by EC50; batch H0396B01 (%afucose 2.1) (%relative activity): 71
- ADCC reporter-gene assay, relative maximum response; batch H0323B07 (%afucose 4.2), the reference standard (%relative activity): 100
- ADCC reporter-gene assay, relative maximum response; batch H0324B01 (%afucose 4.1) (%relative activity): 103
- ADCC reporter-gene assay, relative maximum response; batch H0337B01 (%afucose 2.6) (%relative activity): 86
- ADCC reporter-gene assay, relative maximum response; batch H0340B01 (%afucose 2.4) (%relative activity): 88
- ADCC reporter-gene assay, relative maximum response; batch H0371B01 (%afucose 2.1) (%relative activity): 72
- ADCC reporter-gene assay, relative maximum response; batch H0382B04 (%afucose 3.7) (%relative activity): 96
- ADCC reporter-gene assay, relative maximum response; batch H0383B01 (%afucose 1.8) (%relative activity): 70
- ADCC reporter-gene assay, relative maximum response; batch H0388B01 (%afucose 2.3) (%relative activity): 74
- ADCC reporter-gene assay, relative maximum response; batch H0389B01 (%afucose 1.9) (%relative activity): 70
- ADCC reporter-gene assay, relative maximum response; batch H0391B01 (%afucose 2.1) (%relative activity): 78
- ADCC reporter-gene assay, relative maximum response; batch H0394B01 (%afucose 2.1) (%relative activity): 74
- ADCC reporter-gene assay, relative maximum response; batch H0395B02 (%afucose 2.1) (%relative activity): 75
- ADCC reporter-gene assay, relative maximum response; batch H0396B01 (%afucose 2.1) (%relative activity): 80
